Among the data in publication PMC4703963 are stoichiometry N values, retold here.

Conditions in all cases: remark: other sources report otherwise
Experiment [1] has as its target Flag-tagged catalytic domain of PHD2 (181-426) (human), Q9GZT9. The experiment in a line: non-reducing SDS-PAGE with immunoblot; total cell lysates (1% IGEPAL, 150 mM NaCl, 50 mM Tris-HCl pH 7.9, no reducing agent) in sample buffer without β-ME; cells treated with H2O2 (50-200 uM), T-hydro (1-3 uM), diamide (0.1-1 mM), 10% FBS or expressing H-ras V12.
Experiment [2] addresses Prolyl hydroxylase domain protein 2 (PHD2), endogenous (human (endogenous in U2OS, H2030, A549)), Q9GZT9. The description is as above.
Experiment [3] concerns the target Flag-tagged PHD2 (with an HA-tagged copy of PHD2 in the co-immunoprecipitation) (human), Q9GZT9. The experiment is described as above.
Experiment [4] deals with Flag-tagged PHD2 purified from HEK293T cells (human), Q9GZT9. The experiment in a line: non-reducing SDS-PAGE with immunoblot; tagged PHD2 affinity-purified (Flag or HA gel, peptide elution) from H2O2-treated HEK293T cells, run without DTT. (In general: A western blot detects proteins with antibodies after separation by electrophoresis.)
Experiment [5] concerns the target Wild-type HA-PHD2 purified from HEK293T cells (human), Q9GZT9. Described as above.

B1: Flag-tagged catalytic domain of PHD2 (181-426), Q9GZT9 181-426 (domain or fragment)
chain: PNGQTKPLPALKLALEYIVPCMNKHGICVVDDFLGKETGQQIGDEVRALHDTGKFTDGQLVSQKSDSSKDIRGDKITWIEGKEPGCETIGLLMSSMDDLIRHCNGKLGSYKINGRTKAMVACYPGNGTGYVRHVDNPNGDGRCVTCIYYLNKDWDAKVSGGILRIFPEGKAQFADIEPKFDRLLFFWSDRRNPHEVQPAYATRYAITVWYFDADERARAKVKYLTGEKGVRVELNKPSDSVGKDVF
In the case of B1, the stoichiometry N (commonly a count of units in the complex or per binding partner) in experiment [1] came to 2.

B2: Prolyl hydroxylase domain protein 2 (PHD2), endogenous, Q9GZT9 1-426 (natural protein)
chain: MANDSGGPGGPSPSERDRQYCELCGKMENLLRCSRCRSSFYCCKEHQRQDWKKHKLVCQGSEGALGHGVGPHQHSGPAPPAAVPPPRAGAREPRKAAARRDNASGDAAKGKVKAKPPADPAAAASPCRAAAGGQGSAVAAEAEPGKEEPPARSSLFQEKANLYPPSNTPGDALSPGGGLRPNGQTKPLPALKLALEYIVPCMNKHGICVVDDFLGKETGQQIGDEVRALHDTGKFTDGQLVSQKSDSSKDIRGDKITWIEGKEPGCETIGLLMSSMDDLIRHCNGKLGSYKINGRTKAMVACYPGNGTGYVRHVDNPNGDGRCVTCIYYLNKDWDAKVSGGILRIFPEGKAQFADIEPKFDRLLFFWSDRRNPHEVQPAYATRYAITVWYFDADERARAKVKYLTGEKGVRVELNKPSDSVGKDVF
The molecule B2 gave a stoichiometry N in experiment [2] of 2.

B3: Flag-tagged PHD2 (with an HA-tagged copy of PHD2 in the co-immunoprecipitation), Q9GZT9 1-426 (natural protein)
chain: B2 chain
Turning to B3, the stoichiometry N in experiment [3] stood at 2.

B4: Flag-tagged PHD2 purified from HEK293T cells, Q9GZT9 1-426 (natural protein)
chain: B2 chain
On to B4, for which the stoichiometry N in experiment [4] was 2.

B5: Wild-type HA-PHD2 purified from HEK293T cells, Q9GZT9 1-426 (natural protein)
chain: B2 chain
Consider B5, for which the stoichiometry N in experiment [5] came out at 2.
